Results published in paper PMC9352680, “A comprehensive thermodynamic model for RNA binding by the Saccharomyces cerevisiae Pumilio protein PUF4”.
Residue numbers refer to the chain shown, from its start. Names and notes keep the numbering of the source.

Molecular target: T1, PUF4 RNA-binding domain (Saccharomyces cerevisiae, UniProt P25339 537-888)
T1 sequence: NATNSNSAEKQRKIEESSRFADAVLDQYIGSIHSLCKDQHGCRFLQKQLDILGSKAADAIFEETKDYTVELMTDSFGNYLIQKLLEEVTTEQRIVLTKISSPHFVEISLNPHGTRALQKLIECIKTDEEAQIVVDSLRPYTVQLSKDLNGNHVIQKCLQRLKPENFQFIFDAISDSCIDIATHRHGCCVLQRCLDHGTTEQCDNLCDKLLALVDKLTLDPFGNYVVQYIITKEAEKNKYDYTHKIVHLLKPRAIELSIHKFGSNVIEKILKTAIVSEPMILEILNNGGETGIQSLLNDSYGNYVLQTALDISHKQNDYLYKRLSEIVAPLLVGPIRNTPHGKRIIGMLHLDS
Test: Mg; RNA-MaP; 20 mM Na-HEPES pH 7.4, 30 mM KOAc, 0.75 mM MgCl2, 0.1% Tween-20, 5% glycerol, 0.1 mg/mL BSA, 2 mM DTT; 25 C; 0.0125-409.6 nM protein
Details: tags: N-His6-TEV cleaved; C-SNAP kept, Cy3B-labelled; label: tethered on chip by stalled RNA polymerase

B1: Id_ii_S4_P4E.3_K4.2_C4.2_H4.2_A4.1_F4.1_T4.2_[G10C] (ssRNA)
RNA: UUUGACAACUGAUCGUUCUUUCUCUUAUAUAUUACUUUCUUUCUCGAUCAGUUGUCUUU
Q: B1 was tested. Which Kd did it give?
A: Its Kd is 5.15 nM.

B2: Id_ii_S4_P4E.3_K4.2_C4.2_H4.2_A4.1_F4.1_T4.2_[G10T]_[T11C] (ssRNA)
RNA: B1 RNA with C35U, U36C
Q: For B2, which Kd is on record?
A: Its Kd is 6.46 nM.

B3: Id_ii_S4_P4E.3_K4.2_C4.2_H4.2_A4.1_F4.1_T4.2_[G10A]_[T11C] (ssRNA)
RNA: B1 RNA with C35A, U36C
Q: With B3 as the binder, how does the Kd read?
A: Its Kd is 15.9 nM.

B4: Id_ii_S4_P4E.3_K4.2_C4.2_H4.2_A4.1_F4.1_T4.2_[G10A] (ssRNA)
RNA: B1 RNA with C35A
Q: For B4, which Kd is on record?
A: Its Kd is 10.8 nM.

B5: Id_ii_S4_P4E.3_K4.2_C4.2_H4.2_A4.1_F4.1_T4.2_[T11C] (ssRNA)
RNA: B1 RNA with C35G, U36C
Q: B5 was tested. Which Kd did it give?
A: The Kd was 5.07 nM.

B6: If_S4_P4E.3_K4.2_C4.2_H4.2_A4.1_F4.1_T4.2 (ssRNA)
RNA: B1 RNA with C35G
Q: For B6, which Kd is on record?
A: The Kd was 8.97 nM.

B7: Id_ii_S4_P4E.4_K4.3_C4.2_[C-2G]_[T-1C]_H4.3_A4.1_F4.1_T4.2_[G10C]_[T11G] (ssRNA)
RNA: B1 RNA with C24G, U25C, U26A, A27C, U28A, A29C, U36G
Q: How did the Kd turn out when B7 was run?
A: Its Kd is 2000 nM.

B8: Id_ii_S4_P4E.4_K4.3_C4.2_[C-2G]_[T-1C]_H4.3_A4.1_F4.1_T4.2_[G10T]_[T11A] (ssRNA)
RNA: UUUGACAACUGAUCGUUCUUUCUGCACACUAUUAUAUUCUUUCUCGAUCAGUUGUCUUU
Q: B8 was tested. Which Kd did it give?
A: Its Kd is 28.5 nM.

B9: Id_ii_S4_P4E.4_K4.3_C4.2_[C-2G]_H4.3_A4.1_F4.1_T4.2_[G10C]_[T11C] (ssRNA)
RNA: B8 RNA with C25U, U35C, A36C
Q: B9 was tested. Which Kd did it give?
A: The Kd was 1.02 nM.

B10: Ib_S1_P5E.1_K5.1_C5.1_H5.1_[G2A]_A5.1_[A7G]_F5.1_T5.1 (ssRNA)
RNA: UCUCUUUAUAUUGUUAUCUCUU
Q: Which Kd does the source give for B10 here?
A: The Kd was 846 nM.

B11: Id_ii_S4_P4E.4_K4.3_C4.2_[C-2G]_H4.3_A4.1_F4.1_T4.2_[G10T]_[T11A] (ssRNA)
RNA: B8 RNA with C25U
Q: How did the Kd turn out when B11 was run?
A: Its Kd is 0.647 nM.

B12: Id_ii_S4_P4E.4_K4.3_C4.2_[C-2G]_H4.3_A4.1_F4.1_T4.2_[G10T] (ssRNA)
RNA: B8 RNA with C25U, A36U
Q: How did the Kd turn out when B12 was run?
A: The Kd was 0.388 nM.

B13: Id_ii_S4_P4E.4_K4.3_C4.2_[C-2G]_H4.3_A4.1_F4.1_T4.2_[G10A]_[T11C] (ssRNA)
RNA: B8 RNA with C25U, U35A, A36C
Q: With B13 as the binder, how does the Kd read?
A: The Kd was 1.54 nM.

B14: Id_ii_S4_P4E.4_K4.3_C4.2_[C-2G]_H4.3_A4.1_F4.1_T4.2_[G10A]_[T11A] (ssRNA)
RNA: B8 RNA with C25U, U35A
Q: For B14, which Kd is on record?
A: The Kd was 0.535 nM.

B15: Id_ii_S4_P4E.4_K4.3_C4.2_[C-2T]_[T-1C]_H4.3_A4.1_F4.1_T4.2_[G10T]_[T11C] (ssRNA)
RNA: B8 RNA with G24U, A36C
Q: B15 was tested. Which Kd did it give?
A: The Kd was greater than 2300 nM.

B16: Id_ii_S4_P4E.4_K4.3_C4.2_[C-2T]_[T-1C]_H4.3_A4.1_F4.1_T4.2_[G10A]_[T11C] (ssRNA)
RNA: B8 RNA with G24U, U35A, A36C
Q: Which Kd does the source give for B16 here?
A: Its Kd is 2110 nM.

B17: Id_ii_S4_P4E.4_K4.3_C4.2_[C-2T]_[T-1A]_H4.3_A4.1_F4.1_T4.2_[G10C]_[T11A] (ssRNA)
RNA: B8 RNA with G24U, C25A, U35C
Q: B17 was tested. Which Kd did it give?
A: Its Kd is greater than 2300 nM.

B18: Id_ii_S4_P4E.4_K4.3_C4.2_[C-2T]_[T-1A]_H4.3_A4.1_F4.1_T4.2_[G10T]_[T11C] (ssRNA)
RNA: B8 RNA with G24U, C25A, A36C
Q: With B18 as the binder, how does the Kd read?
A: Its Kd is greater than 2300 nM.

B19: Id_ii_S4_P4E.4_K4.3_C4.2_[C-2T]_[T-1A]_H4.3_A4.1_F4.1_T4.2_[G10T]_[T11A] (ssRNA)
RNA: B8 RNA with G24U, C25A
Q: Which Kd does the source give for B19 here?
A: Its Kd is 716 nM.

B20: Id_ii_S4_P4E.4_K4.3_C4.2_[C-2T]_[T-1A]_H4.3_A4.1_F4.1_T4.2_[G10A]_[T11C] (ssRNA)
RNA: B8 RNA with G24U, C25A, U35A, A36C
Q: With B20 as the binder, how does the Kd read?
A: The Kd was greater than 2300 nM.

B21: Ib_S1_P5E.1_K5.1_C5.1_H5.1_[G2A]_A5.1_[A7C]_F5.1_T5.1 (ssRNA)
RNA: UCUCUUUAUAUUCUUAUCUCUU
Q: With B21 as the binder, how does the Kd read?
A: The Kd was 801 nM.

B22: Id_ii_S4_P4E.4_K4.3_C4.2_[C-2T]_[T-1A]_H4.3_A4.1_F4.1_T4.2 (ssRNA)
RNA: B8 RNA with G24U, C25A, U35G, A36U
Q: Which Kd does the source give for B22 here?
A: The Kd was greater than 2300 nM.

B23: Id_ii_S4_P4E.4_K4.3_C4.2_[C-2A]_[T-1C]_H4.3_A4.1_F4.1_T4.2_[G10C] (ssRNA)
RNA: B8 RNA with G24A, U35C, A36U
Q: For B23, which Kd is on record?
A: Its Kd is greater than 2300 nM.

B24: Id_ii_S4_P4E.4_K4.3_C4.2_[C-2A]_H4.3_A4.1_F4.1_T4.2_[G10C]_[T11C] (ssRNA)
RNA: B8 RNA with G24A, C25U, U35C, A36C
Q: B24 was tested. Which Kd did it give?
A: Its Kd is 14.9 nM.

B25: Id_ii_S4_P4E.4_K4.3_C4.2_[C-2A]_H4.3_A4.1_F4.1_T4.2_[G10A] (ssRNA)
RNA: B8 RNA with G24A, C25U, U35A, A36U
Q: With B25 as the binder, how does the Kd read?
A: Its Kd is 28.2 nM.

B26: Id_ii_S4_P4E.4_K4.3_C4.2_[T-1G]_H4.3_A4.1_F4.1_T4.2_[G10C]_[T11C] (ssRNA)
RNA: B8 RNA with G24C, C25G, U35C, A36C
Q: B26 was tested. Which Kd did it give?
A: Its Kd is greater than 2300 nM.

B27: Id_ii_S4_P4E.4_K4.3_C4.2_[T-1G]_H4.3_A4.1_F4.1_T4.2_[G10C]_[T11A] (ssRNA)
RNA: B8 RNA with G24C, C25G, U35C
Q: With B27 as the binder, how does the Kd read?
A: Its Kd is greater than 2300 nM.

B28: Id_ii_S4_P4E.4_K4.3_C4.2_[T-1G]_H4.3_A4.1_F4.1_T4.2_[G10T] (ssRNA)
RNA: B8 RNA with G24C, C25G, A36U
Q: Which Kd does the source give for B28 here?
A: The Kd was greater than 2300 nM.
